Results as given in patent publication US20180362587A1, “Compositions and Methods for Inhibiting CBP80 Binding to PGC1 Family of Co-Activators” (University of Rochester, priority 2015, published 2018).
Primed or numbered codes have the meaning given here. FITC′ = fluorescein-isothiocyanate; Ahx = NCCCCCC(=O)O

T1: FLAG-PGC1α WT (human, UniProt Q9UBK2 1-798)
T1 construct: also called FLAG-tagged human (h) PGC1α wild-type; FLAG-PCG1α WT; not shown: FLAG tag
T1 sequence (looked up): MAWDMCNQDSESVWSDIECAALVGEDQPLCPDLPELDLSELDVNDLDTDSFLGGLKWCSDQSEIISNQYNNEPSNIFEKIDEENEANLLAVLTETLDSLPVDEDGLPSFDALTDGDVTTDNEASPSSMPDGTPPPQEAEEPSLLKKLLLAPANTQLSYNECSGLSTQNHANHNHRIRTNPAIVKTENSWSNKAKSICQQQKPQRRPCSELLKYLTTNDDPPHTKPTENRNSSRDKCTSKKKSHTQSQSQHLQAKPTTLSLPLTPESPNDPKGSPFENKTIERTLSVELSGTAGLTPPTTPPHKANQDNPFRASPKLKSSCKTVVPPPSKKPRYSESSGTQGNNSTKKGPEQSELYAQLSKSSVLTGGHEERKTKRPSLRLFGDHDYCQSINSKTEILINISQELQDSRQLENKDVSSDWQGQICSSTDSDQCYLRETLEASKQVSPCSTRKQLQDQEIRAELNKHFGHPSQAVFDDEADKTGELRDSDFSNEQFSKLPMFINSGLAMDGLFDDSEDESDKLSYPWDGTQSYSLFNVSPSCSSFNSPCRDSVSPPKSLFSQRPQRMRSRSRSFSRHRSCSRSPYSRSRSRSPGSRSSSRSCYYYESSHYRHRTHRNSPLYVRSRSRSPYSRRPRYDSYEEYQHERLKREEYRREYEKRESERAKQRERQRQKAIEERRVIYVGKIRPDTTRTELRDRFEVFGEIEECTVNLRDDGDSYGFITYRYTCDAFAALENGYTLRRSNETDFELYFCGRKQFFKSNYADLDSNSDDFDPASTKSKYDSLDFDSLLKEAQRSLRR

T2: CBP80/CBP20 complex (human, UniProt Q09161 20-790; P52298 1-156, limits assumed)
T2 construct: Used in the fluorescence polarization assays; In the crystal it also carried the cap analogue (m7GpppG / m7GpppA); also called CBC complex; CBC
T2 sequence (looked up) 1: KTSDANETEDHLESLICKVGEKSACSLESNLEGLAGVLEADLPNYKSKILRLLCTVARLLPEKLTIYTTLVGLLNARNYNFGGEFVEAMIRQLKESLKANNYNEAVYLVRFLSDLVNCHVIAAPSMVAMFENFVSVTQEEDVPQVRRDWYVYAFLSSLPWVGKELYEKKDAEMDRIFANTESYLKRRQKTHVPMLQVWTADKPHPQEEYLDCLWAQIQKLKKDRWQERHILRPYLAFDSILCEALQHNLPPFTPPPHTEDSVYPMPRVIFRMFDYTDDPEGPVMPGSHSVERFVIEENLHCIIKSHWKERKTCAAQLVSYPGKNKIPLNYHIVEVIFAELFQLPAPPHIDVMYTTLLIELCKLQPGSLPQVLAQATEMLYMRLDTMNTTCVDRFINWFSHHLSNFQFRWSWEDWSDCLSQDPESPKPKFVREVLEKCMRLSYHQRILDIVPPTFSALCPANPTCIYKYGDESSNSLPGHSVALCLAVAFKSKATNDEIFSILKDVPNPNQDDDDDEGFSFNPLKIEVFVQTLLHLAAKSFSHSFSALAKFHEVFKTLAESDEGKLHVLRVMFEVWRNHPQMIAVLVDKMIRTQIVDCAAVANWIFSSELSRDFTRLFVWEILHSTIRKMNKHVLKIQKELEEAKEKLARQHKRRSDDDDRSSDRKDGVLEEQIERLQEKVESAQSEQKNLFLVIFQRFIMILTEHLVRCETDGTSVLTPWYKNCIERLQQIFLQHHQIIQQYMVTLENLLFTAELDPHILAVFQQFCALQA
T2 sequence (looked up) 2: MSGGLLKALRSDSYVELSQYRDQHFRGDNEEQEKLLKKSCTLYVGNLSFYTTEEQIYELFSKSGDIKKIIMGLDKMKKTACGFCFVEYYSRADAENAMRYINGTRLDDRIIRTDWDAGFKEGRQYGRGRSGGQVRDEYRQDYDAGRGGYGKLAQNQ


Legend:
FLAG-PGC1α WT = target: T1, FLAG-PGC1α WT; assay: anti-FLAG IP from C2C12 knock-down cells, western blot
CBP80/CBP20 complex = target: T2, CBP80/CBP20 complex; assay: fluorescence polarization; 1 µM FITC peptide titrated with CBC complex (1-80 µM), 1:1 model
Method: In order to develop a first set of PGC1β mimics, a series of linear peptides encompassing the CBP80-binding domain of PGC1β were designed and synthesized (Table 3). The ability of these peptides to bind to CBP80 in complex with CBP20 (also referred herein as ‘CBC complex’ or simply ‘CBC’) was assessed using a fluorescence polarization assay in the presence of fluorescein-conjugated PGC1β-derived peptide (FITC-Ahx-[…]-NH₂ (SEQ ID NO:XX), where FITC is fluorescein-isothiocyanate and Ahx is 6-aminohexanoic acid).
The assay was performed in a 15-μl scale in a low-volume 384-well black plate on a Tecan M1000 Plate Reader using 470/20 nm excitation and 520/20 nm emission filters. All proteins and peptides were dissolved and diluted in HEPES buffer (50 mM NaCl, 10 mM HEPES […]). Fluorescently labelled PGC1β peptide (FITC-Ahx-[…]-NH₂) was used at 1 μM final concentration, and fluorescence polarization data were recorded at increasing concentration of the CBC complex (1-80 μM) after a 10-min incubation. The resulting concentration-dependent FP curve was fit to a 1:1 binding model to yield dissociation constant (KD) values. Measurements were performed at least in duplicates.

binding result (FLAG-PGC1α WT) | Kd (CBP80/CBP20 complex) [µM] | Binder
binds | – | endogenous CBP80 of mouse C2C12 myoblasts (other, UniProt Q3UYV9 1-790, looked up) MSRRRHSYENDGGQPHKRRKTSDANETEDHLESLICKVGEKSACSLESNLEGLAGVLEADLPNYKSKILRLLCTVARLLPEKLTIYTTLVGLLNARNYNFGGEFVEAMIRQLKESLKANNYNEAVYLVRFLSDLVNCHVIAAPSMVAMFENFVSVTQEEDVPQVRRDWYVYAFLSSLPWVGKELYEKKDAEMDRIFSTTESYLKRRQKTHVPMLQVWTADKPHPQEEYLDCLWAQIQKLKKDRWQERHILRPYLAFDSILCEALQHNLPPFTPPPHTEDSVYPMPRVIFRMFDYTDDPEGPVMPGSHSVERFVIEENLHCIIKSYWKERKTCAAQLVSYPGKNKIPLNYHIVEVIFAELFQLPAPPHIDVMYTTLLIELCKLQPGSLPQVLAQATEMLYMRLDTMSTTCVDRFINWFSHHLSNFQFRWSWEDWSDCLTQDLESPKPKFVREVLEKCMRLSYHQHILDIVPPTFSALCPANPTCIYKYGDESSNSLPGHSVALCLSVAFKSKATNDEIFSILKDVPNPNQVDDDDEGFRFNPLKIEVFVQTLLHLAAKSFSHSFSALAKFHEVFKTLAESDKGKLHVLRVMFEVWRNHPQMIAVLVDKMIRTQIVDCAAVANWIFSSELSRDFTRLFVWEILHSTIRKMNKHVLKIQKELEEAKEKLARQHKRRSDDDDRSSDRKDGALEEQIERLQEKVEAAQSEQKNLFLVIFQRFIMILTEHLVRCETDGTSILTPWYKNCIERLQQIFLQHHQTIQQYMVTLENLLFTAELDPHILAVFQQFCALQA
– | 47 | {FITC′-Ahx}-AMDFDSLLKEAQQSLH-NH2 (Tracer of the FP assays; also called fluorescein-conjugated PGC1β-derived peptide; FITC-labeled PGC1β peptide) [FITC-Ahx-AMDFDSLLKEAQQSLH-NH2]
